Test results: patent publication US20220308056A1 (OMEROS, published 2022)

Target: T1, MASP-2/C1-INH complex (fluid-phase, from human serum or plasma) (human, UniProt O00187 16-686; P05155 22-500)
T1 construct: also called C1-INH/MASP-2 complex
Experiment: sandwich ELISA; mAb coated as capture, anti-C1-INH polyclonal detection, mannan-activated human serum
Method: The microtiter plate was blocked with 280 μl/well of 1% (w/v) BSA in TBS buffer for 1 hr at RT. (ii) Activated control serum was prepared by diluting pooled normal human serum (NHS) to 20% v/v in Tris-buffered saline (TBS; 10 mM Tris-C₁, 140 mM NaCl, pH 7.4) with 5 mM Ca²⁺. Mannan-agarose (100 uL, Sigma cat. M9917) was washed twice with five volumes of TBS/Ca²⁺, and resuspended to 100 μl in the same buffer. 500 μl of 20% serum was added to the 100 μl of mannan-agarose and incubated at room temperature (RT) with gentle shaking or rotation for 30 minutes. EDTA was then added to an end concentration of 10 mM and incubated for a further 2 minutes. The agarose was then spun down and the activated serum was aspirated off and stored at −20° C. (iii) Serial dilutions were prepared from the activated control serum over a range of 0.1% to 20% and the in TBS/Ca²⁺. The blocking buffer was discarded and 100 ul/well of samples or control sera was added to the plate and incubated for 1 hour at room temperature. […] (v) The plate was then washed 3× as described above. 100 μl/well anti-rabbit HRP (Sigma, 1:5000) was added and incubated for a further 45 min. (vi) The plate was then washed 3× as described above and 100 μl/well TMB substrate was added. When blue color developed, 50 μl/well 2N H₂SO₄ was added to stop the reaction and measured at the OD₄₅₀ nm.

T1 sequence (O00187 16-686, chain 1 of 2): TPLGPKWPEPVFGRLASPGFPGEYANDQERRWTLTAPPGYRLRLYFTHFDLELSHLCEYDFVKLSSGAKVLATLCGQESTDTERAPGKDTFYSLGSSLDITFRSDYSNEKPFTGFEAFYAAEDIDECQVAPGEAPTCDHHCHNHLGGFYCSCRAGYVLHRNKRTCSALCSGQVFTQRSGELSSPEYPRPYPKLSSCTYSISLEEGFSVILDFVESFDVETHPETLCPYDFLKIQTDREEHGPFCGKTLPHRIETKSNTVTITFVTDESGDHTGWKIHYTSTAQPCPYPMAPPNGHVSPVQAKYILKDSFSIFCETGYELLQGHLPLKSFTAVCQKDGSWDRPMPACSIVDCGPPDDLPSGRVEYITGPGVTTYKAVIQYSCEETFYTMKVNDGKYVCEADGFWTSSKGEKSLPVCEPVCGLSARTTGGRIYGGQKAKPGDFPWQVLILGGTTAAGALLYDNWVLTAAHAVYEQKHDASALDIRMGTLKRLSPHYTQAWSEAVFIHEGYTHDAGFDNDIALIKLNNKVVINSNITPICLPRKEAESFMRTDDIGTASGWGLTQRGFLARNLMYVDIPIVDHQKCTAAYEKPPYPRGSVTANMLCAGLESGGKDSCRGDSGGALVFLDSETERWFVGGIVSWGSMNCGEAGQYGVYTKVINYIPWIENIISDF
T1 sequence (P05155 22-500, chain 2 of 2): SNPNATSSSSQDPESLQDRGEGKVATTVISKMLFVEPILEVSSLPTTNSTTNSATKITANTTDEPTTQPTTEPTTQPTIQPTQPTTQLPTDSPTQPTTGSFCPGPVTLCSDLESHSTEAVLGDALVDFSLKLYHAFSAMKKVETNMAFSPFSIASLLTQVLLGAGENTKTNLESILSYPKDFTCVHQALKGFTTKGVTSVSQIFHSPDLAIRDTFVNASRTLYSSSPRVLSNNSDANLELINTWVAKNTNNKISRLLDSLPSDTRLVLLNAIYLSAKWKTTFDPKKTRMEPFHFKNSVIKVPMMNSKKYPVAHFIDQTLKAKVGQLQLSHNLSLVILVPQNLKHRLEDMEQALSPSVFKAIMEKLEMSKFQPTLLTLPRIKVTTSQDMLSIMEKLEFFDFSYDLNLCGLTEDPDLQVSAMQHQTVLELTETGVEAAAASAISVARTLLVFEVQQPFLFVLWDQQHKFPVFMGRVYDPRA

B1: anti-MASP-2 mAb clone #C7 (antibody, V domains shown)
VH: EVKLVESGGGLVKPGGSLKLSCAASGFTFSSYLMSWVRQTPEKRLEWVATISGGGGNTYHPDSMKGRFTISRDNAKNTLYLQMSSLRSEDTALYYCARHGDFGNYFDYWGQGTTLTVSS
VL: DIVMSQSPSSLAVSAGEKVTMSCKSSQSLLNSGTQKNYLAWYQQKPGQSPKLLIYWASTRESGVPDRFTGSGSGTDFTLTISSVQAEDLAVYYCKQSYNLFTFGAGTKLELKR
notes: From hybridomas of immunized MASP-2 KO mice; also called mAb #C7; mAb #7
- binding result: binds
